Experiments:
PARP1 and CASP3 cleavage = assay: PARP1 and Casp3 cleavage immunoblot, THP-1; format: cell-based, human; details: anti-EGFL7 treatment, western blots
Procedure: FIG. 24A-24G. EGFL7 prevents activation of NOTCH signaling in AML cells. (FIG. 24A) Overview of experiments using DLL4-FC and IgG-FC control coated plates to induce NOTCH activation. (FIG. 24B) THP-1 cells were pre-treated with 10 μM γ-secretase inhibitor (AVA), 100 μg/ml anti-EGFL7 antibody or 0.25 μM rEGFL7 for 30 min, then transferred to IgG-Fc or DLL4-Fc coated plates. After 4 h of incubation total RNA from THP-1 cells was extracted for qRT-PCR analysis of HES1 with β-ACTIN as internal control. ^###P<0.001 DLL4-FC vs IgG-FC; ***P<0.001 DLL4+AVA, DLL4+rEGFL7, and DLL4+anti-EGFL7 vs DLL4-FC. […] THP-1 cells were treated with the indicated concentration of anti-EGFL7 (@E7) then assessed for apoptosis using (FIG. 24D) AnnexinV+ staining and FACS; *P<0.05 (FIG. 24E) Immuno-blotting for PARP1 and Casp3 cleavage. (FIG. 24F) Cell differentiation was assessed by CD11B and CD14 staining 96-hours post anti-EGFL7 treatments; *P<0.05. (FIG. 24G) To determine whether activation of NOTCH by DLL4-Fc could be accentuated by anti-EGFL7 treatment, THP-1 cells were first treated with anti-EGFL7 (100 μg/ml) and then cultured on DLL4-FC or IgG-Fc coated plates and then assessed for apoptosis using AnnexinV+ staining and FACS. *P<0.05 DLL4-Fc and anti-EGFL7; vs DLL4-FC+anti-EGFL7. […]

HEY1 mRNA = HEY1 mRNA qRT-PCR in primary AML blasts; format: cell-based, human; details: 100 μg/ml, 2 and 10 h, vs IgG
Procedure: FIG. 26. Blocking EGFL7 increases the NOTCH downstream target, HEY1, in human AML patient blasts (A) Primary blasts from AML patients were cultured in SFEM medium with 10% FBS in the absence or presence of 100 μg/ml of IgG or anti-human EGFL7 antibody for 2 and 10 h. Total RNAs were extracted for qRT-PCR analysis of HEY1 mRNA with β-ACTIN as internal control. *p<0.05, ***p<0.001 vs IgG; ns=not significant.
Total RNA was extracted using Trizol reagent (Invitrogen, Carlsbad, Calif., USA). cDNA was synthesized using SuperScript III reagents (Invitrogen) according to the manufacturer's instruction. Quantitative Real-Time RT-PCR was performed using commercially available TaqMan Gene Expression Assay primers and the 7900HT Fast Real-Time PCR System (Applied Biosystems, Foster City, Calif., USA). The expression levels of target genes were normalized to β-ACTIN. Relative expression was calculated by using the comparative 2^−ΔΔct method.

[1] = test system: non-small cell lung cancer; details: mouse, in vivo; cited from earlier work
AML cell lines = assay: Apoptosis (AnnexinV/7AAD) in AML cell lines; format: cell-based, human; details: 50 μg/ml, forty-eight hours, vs IgG control
Procedure: FIG. 9. […] Forty-eight hours after IgG control vs. @E7 antibody treatment (50 μg/ml) of AML cell lines apoptosis was evaluated by AnnexinV/7AAD staining. * indicates P<0.05, ** indicates P<0.01.
For the evaluation of apoptosis, cells were stained with Annexin V and 7-AAD as previously described^16, 21 For the evaluation of cell proliferation, AML cell lines were incubated with BrdU, fixed, permeabilized and stained with APC-conjugated anti-BrdU antibody, according to the instructions of the manufacturer (BD Biosciences) and as previously described^16, 21 The proliferating fraction of the cells (i.e., the BrdU positive cells) was evaluated with flow cytometry (LSRII, BD Biosciences). For cell differentiation analysis, cells were stained with an anti-CD11B antibody (BD Biosciences) and analyzed by flow cytometry.

B1: Parsatuzumab: Anti-human EGFL7 therapeutic antibody (Parsatuzumab) obtained from Creative Biolabs; blocking monoclonal antibody (antibody, chains of the INN, looked up, V domains shown)
VH: EVQLVESGGGLVQPGGSLRLSCAASGYTFIDYYMNWVRQAPGKGLEWVGDINLDNSGTHYNQKFKGRFTISRDKSKNTAYLQMNSLRAEDTAVYYCAREGVYHDYDDYAMDYWGQGTLVTVSS
VL: DIQMTQSPSSLSASVGDRVTITCRTSQSLVHINAITYLHWYQQKPGKAPKLLIYRVSNRFSGVPSRFSGSGSGTDFTLTISSLQPEDFATYYCGQSTHVPLTFGQGTKVEIK
PARP1 and CASP3 cleavage (PARP1 and CASP3 cleavage): increase in PARP1 and CASP3 cleavage
HEY1 mRNA (HEY1 mRNA): increases were also observed
overall survival [1]: increased overall survival
tumor size [1]: decreased tumor size
apoptosis (AnnexinV/7AAD) (AML cell lines): increased apoptosis
